According to US20150361183A1 (IMPERIAL INNOVATIONS, published 2015):

B5: CFHR1 (complement factor H-related protein 1), purified from serum (other)
chain: EATFCDFPKINHGILYDEEKYKPFSQVPTGEVFYYSCEYNFVSPSKSFWTRITCTEEGWSPTPKCLRLCFFPFVENGHSESSGQTHLEGDTVQIICNTGYRLQNNENNISCVERGWSTPPKCRSTDTSCVNPPTVQNAHILSRQMSKYPSGERVRYECRSPYEMFGDEEVMCLNGNWTEPPQCKDSTGKCGPPPPIDNGDITSFPLSVYAPASSVEYQCQNLYQLEGNKRITCRNGQWSEPPKCLHPCVISREIMENYNIALRWTAKQKLYLRTGESAEFVCKRGYRLSSRSHTLRTTCWDGKLEYPTCAKR

Experiments:
iC3b = target: T1, iC3b (UniProt P01024 23-667; P01024 749-1303; P01024 1321-1663); test: SPR steady state, iC3b on chip; reference CFHR5
T1 construct: also called thioester-coupled iC3b
T1 sequence (P01024 23-667, chain 1 of 3): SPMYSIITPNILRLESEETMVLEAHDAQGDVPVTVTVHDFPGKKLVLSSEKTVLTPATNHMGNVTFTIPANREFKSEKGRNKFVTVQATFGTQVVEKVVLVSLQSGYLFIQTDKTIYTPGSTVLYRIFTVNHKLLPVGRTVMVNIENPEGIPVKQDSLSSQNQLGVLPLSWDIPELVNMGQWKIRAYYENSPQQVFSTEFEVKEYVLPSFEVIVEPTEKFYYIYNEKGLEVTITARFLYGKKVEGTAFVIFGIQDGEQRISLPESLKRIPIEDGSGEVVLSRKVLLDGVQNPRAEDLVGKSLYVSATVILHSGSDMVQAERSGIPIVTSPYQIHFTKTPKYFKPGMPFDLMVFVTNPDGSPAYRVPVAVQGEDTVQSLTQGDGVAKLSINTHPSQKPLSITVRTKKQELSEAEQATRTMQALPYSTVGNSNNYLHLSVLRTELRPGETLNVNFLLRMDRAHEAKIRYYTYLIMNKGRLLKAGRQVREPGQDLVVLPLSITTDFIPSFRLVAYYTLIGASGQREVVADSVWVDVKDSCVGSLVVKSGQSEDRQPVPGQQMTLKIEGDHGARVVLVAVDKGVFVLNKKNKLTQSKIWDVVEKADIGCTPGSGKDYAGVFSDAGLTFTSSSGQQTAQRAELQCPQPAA
T1 sequence (P01024 749-1303, chain 2 of 3): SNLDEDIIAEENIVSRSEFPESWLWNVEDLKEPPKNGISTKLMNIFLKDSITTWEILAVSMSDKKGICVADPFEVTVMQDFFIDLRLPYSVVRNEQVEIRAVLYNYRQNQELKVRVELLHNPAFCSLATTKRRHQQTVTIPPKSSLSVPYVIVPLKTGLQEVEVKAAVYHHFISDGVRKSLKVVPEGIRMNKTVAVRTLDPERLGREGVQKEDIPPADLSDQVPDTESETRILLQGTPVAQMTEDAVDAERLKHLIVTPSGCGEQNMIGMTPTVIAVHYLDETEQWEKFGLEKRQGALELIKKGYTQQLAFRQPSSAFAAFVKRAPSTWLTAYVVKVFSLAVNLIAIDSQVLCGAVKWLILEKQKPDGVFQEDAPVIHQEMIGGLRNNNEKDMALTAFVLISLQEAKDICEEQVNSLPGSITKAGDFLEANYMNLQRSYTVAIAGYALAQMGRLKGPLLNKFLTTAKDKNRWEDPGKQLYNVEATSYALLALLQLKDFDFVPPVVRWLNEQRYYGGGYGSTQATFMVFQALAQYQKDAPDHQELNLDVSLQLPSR
T1 sequence (P01024 1321-1663, chain 3 of 3): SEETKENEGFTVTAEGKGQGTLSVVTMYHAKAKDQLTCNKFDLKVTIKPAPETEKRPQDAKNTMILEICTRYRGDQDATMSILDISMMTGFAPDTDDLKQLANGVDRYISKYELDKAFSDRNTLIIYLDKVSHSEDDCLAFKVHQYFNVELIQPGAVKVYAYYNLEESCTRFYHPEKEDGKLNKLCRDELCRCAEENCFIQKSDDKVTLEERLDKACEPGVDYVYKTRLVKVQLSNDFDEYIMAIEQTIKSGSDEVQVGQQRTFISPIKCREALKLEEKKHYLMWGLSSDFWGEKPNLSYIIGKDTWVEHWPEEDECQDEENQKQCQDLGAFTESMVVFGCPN

C3b [1] = target: T2, C3b (UniProt P01024 749-1663; P01024 23-667); test: cell-based or functional assay
T2 sequence (P01024 749-1663 limits assumed, chain 1 of 2): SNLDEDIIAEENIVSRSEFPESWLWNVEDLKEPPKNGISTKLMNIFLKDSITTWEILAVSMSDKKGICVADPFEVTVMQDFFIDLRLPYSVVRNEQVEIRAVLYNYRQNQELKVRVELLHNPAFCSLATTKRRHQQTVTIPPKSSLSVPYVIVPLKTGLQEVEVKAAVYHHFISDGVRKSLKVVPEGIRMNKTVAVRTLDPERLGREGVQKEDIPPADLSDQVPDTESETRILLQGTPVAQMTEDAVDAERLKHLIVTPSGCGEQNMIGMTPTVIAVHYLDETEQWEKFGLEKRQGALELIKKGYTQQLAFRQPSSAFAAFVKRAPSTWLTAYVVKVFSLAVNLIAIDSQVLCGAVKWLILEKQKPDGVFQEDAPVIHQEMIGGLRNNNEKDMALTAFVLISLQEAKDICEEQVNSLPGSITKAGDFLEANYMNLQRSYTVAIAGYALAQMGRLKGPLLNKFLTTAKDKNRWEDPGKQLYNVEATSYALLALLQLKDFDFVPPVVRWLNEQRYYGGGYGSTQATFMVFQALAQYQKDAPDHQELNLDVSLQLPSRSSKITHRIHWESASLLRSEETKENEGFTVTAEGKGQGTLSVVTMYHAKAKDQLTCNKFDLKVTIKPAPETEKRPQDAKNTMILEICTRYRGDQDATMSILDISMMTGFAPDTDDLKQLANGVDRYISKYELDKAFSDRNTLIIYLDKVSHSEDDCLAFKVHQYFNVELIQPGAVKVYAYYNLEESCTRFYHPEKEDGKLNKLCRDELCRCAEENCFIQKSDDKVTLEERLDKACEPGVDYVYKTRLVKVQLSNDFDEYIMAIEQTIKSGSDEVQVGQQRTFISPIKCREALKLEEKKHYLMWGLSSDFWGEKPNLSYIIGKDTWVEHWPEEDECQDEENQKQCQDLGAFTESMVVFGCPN
T2 sequence (P01024 23-667 limits assumed, chain 2 of 2): as the sequence (P01024 23-667, chain 1 of 3) above

[2] = target: B5; test: serum immunoprecipitation with anti-CFHR2, western blot with MBC125
Description: Serum was immunoprecipitated using a specific anti-CFHR2 antibody (MBC22) and western blot analysis of the immunoprecipitated material with anti-CFHR1/2/5 antibody (MBC125) performed. […] Lane 2 and 4 represent control sera in which no anti-CFHR2 antibody was used. The detection of CFHR2-CFHR5 heterodimers was not possible due to non-specific bands in the CFHR5 region. […] Serum was immunoprecipitated using an anti-CFHR5 antibody and western blot analysis of the immunoprecipitated material with anti-CFHR1/2/5 antibody performed. […] Lane 2 and 4 represent control sera in which no anti-CFHR5 antibody was used. The detection of CFHR2-CFHR5 heterodimers was not possible due to non-specific bands in the CFHR2 region. FIG. 2(d) ELISA assay to detect CFHR2-CFHR5 heterodimers in vivo. Using an anti-CFHR5 capture antibody and an anti-CFHR2 detection antibody, positive signal was demonstrable in two individuals homozygous for the ΔCFHR3-1 deletion polymorphism. A much weaker signal was detectable in individuals without this deletion.
Detection of heterodimers CFHR1-CFHR2 and CFHR1-CFHR5 were identified by immunoprecipitation. […]

[3] = target: the molecule itself; test: size exclusion chromatography
Description: FIG. 3(a) Generation of a CFHR5 protein lacking critical amino acids within the dimerisation motif. Monomeric CFHR5 (CFHR5^{dimer mutant}) was generated by mutating the three stabilizing amino acids (Tyr34Ser, Ser36 Tyr, Tyr39Glu) within the dimerisation motif to the corresponding amino acids within CFH. FIG. 3(b) Analysis of recombinant CFHR5 and CFHR5^{dimer mutant} using SDS PAGE gel electrophoresis. Both the wild type and dimer mutants were purified to single homogenous species as visualized by denaturing electrophoresis. FIG. 3(c) Analysis of recombinant CFHR5 and CFHR5^{dimer mutant} using size exclusion chromatography. Size exclusion chromatography was performed on a Superdex200 10/30 column (GE Healthcare) equilibrated in 50 mM Tris.HCl, pH 7.5, 150 mM NaCl at 0.4 ml/min. The column was followed in-line by an Optilab-Rex refractive index monitor (Wyatt Technologies). The CFHR5 dimer elutes early from the column (blue trace) whilst the monomeric CFHR5^{dimer mutant} protein elutes at a larger column volume (red trace). FIG. 3(d) Interaction of CFHR5 and CFHR5^{dimer mutant} with renal-bound mouse C3 in vivo.

C3b [4] = target: T2, C3b; test: SPR steady state, thioester-coupled (clustered) C3b against amine-coupled C3b
Procedure: FIG. 9(a) Binding of CFHR5 and CFH to low levels of C3b coupled through amine groups (no clustering of C3b). CFH (from 4 μM) or CFHR5 (from 6.6 μM) were flowed across immobilized C3b (400 RU) at different concentrations. Affinity was calculated by steady state analysis. Analysis assumes a 1:1 binding interaction and for CFHR5 calculations used molarity of binding sites. FIG. 9(b) Binding to C3b coupled through the thiolester. C3b (150RU) was amine-coupled to a CM5 Biacore chip and used as a nidus for convertase formation. Further C3b was deposited on the chip surface by flowing fB and fD to form C3bBb followed by C3 as convertase substrate. […] CFH (from 4 μM) and CFHR5 (from 1.35 μM) were flowed across the surface and binding was analysed at steady state. Binding of CFH was very heterogeneous, likely due to crosslinking between multiple C3b-binding sites on fH and clusters of deposited C3b molecules. Affinity could not be calculated under these conditions. […] Data were calculated using the following values: CFH, mass 155 kDa, extinction coefficient 1.95 cm-1 (mg/mL)-1; CFHR5, mass 65 kDa, extinction coefficient 1.55 cm-1 (mg/mL)-1;
All data in FIGS. 9-11 were gathered using a Biacore T100 (GE Healthcare). […] For kinetic studies, samples were injected using the KINJECT command, in HBS/P (10 mM HEPES pH7.4, 150 mM NaCl, 0.05% surfactant-P20) flowed at 30 μl/min and analysed at 25° C. […]

B1: Complement factor H (CFH) (other, UniProt P08603 19-1231, looked up)
chain: EDCNELPPRRNTEILTGSWSDQTYPEGTQAIYKCRPGYRSLGNVIMVCRKGEWVALNPLRKCQKRPCGHPGDTPFGTFTLTGGNVFEYGVKAVYTCNEGYQLLGEINYRECDTDGWTNDIPICEVVKCLPVTAPENGKIVSSAMEPDREYHFGQAVRFVCNSGYKIEGDEEMHCSDDGFWSKEKPKCVEISCKSPDVINGSPISQKIIYKENERFQYKCNMGYEYSERGDAVCTESGWRPLPSCEEKSCDNPYIPNGDYSPLRIKHRTGDEITYQCRNGFYPATRGNTAKCTSTGWIPAPRCTLKPCDYPDIKHGGLYHENMRRPYFPVAVGKYYSYYCDEHFETPSGSYWDHIHCTQDGWSPAVPCLRKCYFPYLENGYNQNYGRKFVQGKSIDVACHPGYALPKAQTTVTCMENGWSPTPRCIRVKTCSKSSIDIENGFISESQYTYALKEKAKYQCKLGYVTADGETSGSITCGKDGWSAQPTCIKSCDIPVFMNARTKNDFTWFKLNDTLDYECHDGYESNTGSTTGSIVCGYNGWSDLPICYERECELPKIDVHLVPDRKKDQYKVGEVLKFSCKPGFTIVGPNSVQCYHFGLSPDLPICKEQVQSCGPPPELLNGNVKEKTKEEYGHSEVVEYYCNPRFLMKGPNKIQCVDGEWTTLPVCIVEESTCGDIPELEHGWAQLSSPPYYYGDSVEFNCSESFTMIGHRSITCIHGVWTQLPQCVAIDKLKKCKSSNLIILEEHLKNKKEFDHNSNIRYRCRGKEGWIHTVCINGRWDPEVNCSMAQIQLCPPPPQIPNSHNMTTTLNYRDGEKVSVLCQENYLIQEGEEITCKDGRWQSIPLCVEKIPCSQPPQIEHGTINSSRSSQESYAHGTKLSYTCEGGFRISEENETTCYMGKWSSPPQCEGLPCKSPPEISHGVVAHMSDSYQYGEEVTYKCFEGFGIDGPAIAKCLGEKWSHPPSCIKTDCLSLPSFENAIPMGEKKDVYKAGEQVTYTCATYYKMDGASNVTCINSRWTGRPTCRDTSCVNPPTVQNAYIVSRQMSKYPSGERVRYQCRSPYEMFGDEEVMCLNGNWTEPPQCKDSTGKCGPPPPIDNGDITSFPLSVYAPASSVEYQCQNLYQLEGNKRITCRNGQWSEPPKCLHPCVISREIMENYNIALRWTAKQKLYSRTGESVEFVCKRGYRLSSRSHTLRTTCWDGKLEYPTCAKR
With B1 the “fold weaker binding than CFHR5” value (iC3b) was 10 fold.

B2: CFHR234 (recombinant CFHR2 domains 3-4) (other)
chain: EKCGPPPPIDNGDITSFLLSVYAPGSSVEYQCQNLYQLEGNNQITCRNGQWSEPPKCLDPCVISQEIMEKYNIKLKWTNQQKLYSRTGDIVEFVCKSGYHPTKSHSFRAMCQNGKLVYPSCEEK
B2 was tested, and the “IC50, dose-dependent increase of lysis in the CFH-dependent alternative pathway haemolytic assay (guinea-pig erythrocytes, 20% normal human serum plus CFH)” value (C3b [1]) was 4700 nM.

B3: CFHR1345 (recombinant CFHR1 domains 3-5) (other)
chain: TSCVNPPTVQNAHILSRQMSKYPSGERVRYECRSPYEMFGDEEVMCLNGNWTEPPQCKDSTGKCGPPPPIDNGDITSFPLSVYAPASSVEYQCQNLYQLEGNKRITCRNGQWSEPPKCLHPCVISREIMENYNIALRWTAKQKLYLRTGESAEFVCKRGYRLSSRSHTLRTTCWDGKLEYPTCAKR
With B3 the “IC50, dose-dependent increase of lysis in the CFH-dependent alternative pathway haemolytic assay (guinea-pig erythrocytes, 20% normal human serum plus CFH)” value (C3b [1]) was 3600 nM.

B4: CFHR2 (complement factor H-related protein 2), native in serum (other)
chain: EAMFCDFPKINHGILYDEEKYKPFSQVPTGEVFYYSCEYNFVSPSKSFWTRITCAEEGWSPTPKCLRLCFFPFVENGHSESSGQTHLEGDTVQIICNTGYRLQNNENNISCVERGWSTPPKCRSTISAEKCGPPPPIDNGDITSFLLSVYAPGSSVEYQCQNLYQLEGNNQITCRNGQWSEPPKCLDPCVISQEIMEKYNIKLKWTNQQKLYSRTGDIVEFVCKSGYHPTKSHSFRAMCQNGKLVYPSCEEK
notes: Native serum protein
B4: binds [2].

B5 was tested, and the “IC50, dose-dependent increase of lysis in the CFH-dependent alternative pathway haemolytic assay (guinea-pig erythrocytes, 20% normal human serum plus CFH)” value (C3b [1]) was 700 nM.

B6: CFHR5 (complement factor H-related protein 5), wild type (other)
chain: EGTLCDFPKIHHGFLYDEEDYNPFSQVPTGEVFYYSCEYNFVSPSKSFWTRITCTEEGWSPTPKCLRMCSFPFVKNGHSESSGLIHLEGDTVQIICNTGYSLQNNEKNISCVERGWSTPPICSFTKGECHVPILEANVDAQPKKESYKVGDVLKFSCRKNLIRVGSDSVQCYQFGWSPNFPTCKGQVRSCGPPPQLSNGEVKEIRKEEYGHNEVVEYDCNPNFIINGPKKIQCVDGEWTTLPTCVEQVKTCGYIPELEYGYVQPSVPPYQHGVSVEVNCRNEYAMIGNNMITCINGIWTELPMCVATHQLKRCKIAGVNIKTLLKLSGKEFNHNSRIRYRCSDIFRYRHSVCINGKWNPEVDCTEKREQFCPPPPQIPNAQNMTTTVNYQDGEKVAVLCKENYLLPEAKEIVCKDGRWQSLPRCVESTAYCGPPPSINNGDTTSFPLSVYPPGSTVTYRCQSFYKLQGSVTVTCRNKQWSEPPRCLDPCVVSEENMNKNNIQLKWRNDGKLYAKTGDAVEFQCKFPHKAMISSPPFRAICQEGKFEYPICE
notes: Recombinant full-length protein from HEK293 cells, a dimer by size exclusion; The same id is used for native serum CFHR5 in the heterodimer experiments; also called recombinant CFHR5; wild-type CFHR5
B6 was tested, and the “IC50, dose-dependent increase of lysis in the CFH-dependent alternative pathway haemolytic assay (guinea-pig erythrocytes, 20% normal human serum plus CFH)” value (C3b [1]) was 150 nM, the binding result [3] was “binds” and the “fold tighter binding to thioester-coupled C3b than to amine-coupled C3b” value (C3b [4]) was 10 fold.
